Experimental data as given in article PMC8976148 (2022).

T1: Biotinylated N-Avitagged-TEAD4^217-434 (UniProt Q15561 217-434, biotin (biotinylated Avitag))
T1 chain: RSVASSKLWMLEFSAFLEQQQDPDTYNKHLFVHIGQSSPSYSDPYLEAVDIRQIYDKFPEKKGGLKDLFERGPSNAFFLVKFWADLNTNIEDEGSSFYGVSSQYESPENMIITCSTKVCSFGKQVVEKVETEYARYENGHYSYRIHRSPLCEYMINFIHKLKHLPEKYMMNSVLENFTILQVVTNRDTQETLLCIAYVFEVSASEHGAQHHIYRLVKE

B1: YAP^50-171 with a cysteine inserted at position 172 (domain or fragment)
chain: AGHQIVHVRGDSETDLEALFNAVMNPKTANVPQTVPMRLRKLPDSFFKPPEPKSHSRQASTDAGTAGALTPQHVRAHSSPASLQLGAVSPGTLTPTGVVSGPAATPTAQHLRQSSFEIPDDVC
B2: YAP^50-171 (domain or fragment)
chain: AGHQIVHVRGDSETDLEALFNAVMNPKTANVPQTVPMRLRKLPDSFFKPPEPKSHSRQASTDAGTAGALTPQHVRAHSSPASLQLGAVSPGTLTPTGVVSGPAATPTAQHLRQSSFEIPDDV

Target: T1, Biotinylated N-Avitagged-TEAD4^217-434
Assay: FRET

Binder	IC50 [nM]
B1	7
B2	11
